Data taken from patent US20260116991A1 (HAINAN SIMCERE ZAIMING PHARMACEUTICAL, published 2026).

T1: polypeptide GC3pep (human)
T1 construct: also called membrane proximal polypeptide GC3pep
T1 peptide: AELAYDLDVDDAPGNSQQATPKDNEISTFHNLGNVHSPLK

B1: F4.26.1 human-murine chimeric antibody (antibody, human IgG1, kappa, V domains shown)
VH: QVQLKQSGPGLVQPSQSLSITCTVSGFSLTSYGVHWVRQSPGKGLEWLGVIWSSGNTDYNAVLISRLSIKKDDSKSQVFFKMNSPQVDDSAIYYCGRNGGWLLRGFMDFWGQGTSVTVSS
VL: DVVMTQTPLSLPVSLGDQASISCRSSQSLLHSNGNTYLHWYLQRSGQSPNLLIYKVSNRFSGVPDRFSGGGSGTDFTLKISRVEAEDLGIYFCSQSTHVPWTFGGGTKLEIKR
B2: F1.73.9 (antibody, human IgG1, kappa, V domains shown)
VH: QVQLKQSGAELVRPGASVKLSCKASGYTFTDYYINWVKQRPGQGLEWIARIYPGSGNTYYNEKFKGKATLTAEKSSSTAYMQFSSLTSEDSAVYFCACSTYYTMDYWGQGTSVTVSS
VL: QIVLTQSPAIMSASLGERVTMTCTASSGVSSSYLHWYQQKPGSSPKLWIYTTSNLASGVPARFSGSGSGTSYSLTISSMEAEDAATYYCHQYHRSPYTFGGGTKLEIKR
notes: human-murine chimeric antibody
B3: F1.92.17 (antibody, human IgG1, kappa, V domains shown)
VH: EVQLQQSGPELVKPGASVKMSCKASGYTFTDYNMHWVRQSHGKSLEWIGYINPNNGDTIYNQNFKGKATLTVNKSSSTAYMELRSLTSEDSAVYYCSRTITYYYSMDYWGPGTSVTVSS
VL: QIVLTQSPALMSASPGEKVTMTCSASSSVSYMYWYQQKPRSSPKPWIYLTSNLASGVPARFSGSGSGTSYSLTISSMEAEDAATYYCQQWSSNPLTFGAGTKLELKR
notes: as for B2
B4: F4.21.16 human-murine chimeric antibody (antibody, human IgG1, kappa, V domains shown)
VH: DVQLQESGPGLVKPSQSLSLTCSVTGYSITSGYYWNWIRQFPGNKLEWMGYISYDVTVNYNPSLKNRISITRDTSKNQFFLKLNSVTTEDTATYYCATITSVASMDHWGQGTSVTVSS
VL: DILMTQTPLSLPVSLGDQASISCRSSQNIVHRNGNTYLEWYLQKPGQSPKLLLYKVSNRFSGVPDRFSGSGSGTDFTLKISRVEAEDLGIYYCFQGSHFPFTFGSGTKLEIKR
B5: F1.110.24 (antibody, human IgG1, kappa, V domains shown)
VH: EVKLVESGGGLVQPGGSLKLSCAASGFTFSDFYMYWVRQTPEKRLEWVAFISNGGGSTYYPDTVKGRFTISRDNVKNTLYLQMSRLKSEDTAMYYCARPDTSWFAYWGQGSLVTVSA
VL: DIQMTQTTSSLSASLGDRVTISCRASQDIDNYLNWYQQKPDGTVKVLISYTSRLHSGVPSRFSGSGSGTDYSLTISNLEQEDIATYFCQQGNTLPWTFGGGTKLEIKR
notes: as for B2
B6: F4.18.4 human-murine chimeric antibody (antibody, human IgG1, kappa, V domains shown)
VH: QVQLHQSGAEMAKPGASVNLSCKTSGFTFTDYGISWVKQRTRQGLEWIGDIYPRHINIYYNEKFKDKATLTADRSSSTAYMELRSMTSEDSAVYFCARRGTTGRGALDYWGQGTSLTVSS
VL: DILLTQSPAILSVSPGERVSFSCRASQSIGTSIHWYQQRTNGSPRLLIKYAFESISGIPSRFGGSGSRTDFTLTINSVESEDIADYYCQQTYNWPYTFGGGTKLEIKR
B7: F1.41.17 (antibody, human IgG1, kappa, V domains shown)
VH: EVQLVESGGDSVKPGGSLKLSCAASGFTFSSYGMSWVRQTPDKRLEWVATINSGGSYTYYQDSVKGRFTISRDNAKNTLYLQMSSLKSEDTAIYYCVRHHYGSSYDYFDYWGQGTTLTVSS
VL: DIVMTQAAPSVPVMPGESVSISCRSSKSLLHSNGNTHLYWFLQRPGQSPQLLIYRMSNLASGVPDRFSGSGSGTAFTLRISRVEAEDVGVYYCMQHLEYPLTFGAGTKLELKR
notes: as for B2
B8: F1.42.8 (antibody, human IgG1, kappa, V domains shown)
VH: HVQLQQPGAELVKPGASVKLSCKASGYTFTSYWMHWVRQRPGQGLEWIEMIHPNSGSTNYNEKFKSKATLTVDKSSSTAYMQLSSLTSEDSAVYYCARGNYNSSLYAMDYWGQGTSVTVSS
VL: DIQMTQTTSSLSASLGDRVTISCSASQGISNYLNWYQQKPDGTVKLLIYYASNLHSGVPSRFSGSGSGTAYSLTISNLEPEDIATYYCQQYSILPYTFGGGTKLEIKR
notes: as for B2
B9: F1.83.6 (antibody, human IgG1, kappa, V domains shown)
VH: QVQLQQSGPELVKPGASVKISCKASGYAFSSSWMNWVKQRPGKGLEWIGRIYPGDGDTNYNGRFKGKATLTVDKSSSTAYMQLSSLTSEDSAVYFCARGGVFTMALDHWGQGTTLTVSS
VL: DIQMTQSPSSLSASLGGKVTITCKASQDINKYIAWYQHKPGKGPRLLIHYTSTLQPGIPSRFSGSGSGRDYSFSISNLEPEDIATYYCLQYDNLFTFGGGTKLEIKR
notes: as for B2
B10: F1.57.21 (antibody, human IgG1, kappa, V domains shown)
VH: QVQLQQSGAELARPGASVKLSCKASGYTFTSYGISWVKQITGQGLEWIGEIYPRSESTYYNEKFKGKATLTADKSSSTAYMELRSLTSEDSAVYFCARDYGNIYSFAYWGQGTLVTVSA
VL: DIQMTQSPASLSASVGETVTITCRTSENIYSYLAWYQQKQGKSPQLLVYNAKTLAEGVPSRFSGSGSGTQFSLKINSLQPEDFGSYYCQHHYGTPLTFGAGTKLELKR
notes: as for B2
B11: F1.78.24 (antibody, human IgG1, kappa, V domains shown)
VH: QVQLQQSGAELVKPGASVKMSCKASGYTFTTYPIEWMKQNHGKSLEWIGNFHPYNDDTNYNVKFKGKATLTVEKSSSTVYLELSRLTSDDSALYYCARRREYYGSFDVWGTGTTVTVSS
VL: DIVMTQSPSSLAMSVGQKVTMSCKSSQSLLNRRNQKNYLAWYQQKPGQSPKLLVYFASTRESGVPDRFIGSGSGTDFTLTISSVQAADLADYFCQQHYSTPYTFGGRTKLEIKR
notes: as for B2

How the values were obtained:
human GPC3-His protein [1] = target: T2, human GPC3-His protein (human, UniProt P51654 25-559); experiment: ELISA, coated human GPC3, antibody 0.01 nM;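 further: Plate-bound antigen coated at 1 µg/mL, antibody incubated 2 h at 37 °C, binding detected by HRP-conjugated secondary antibody with TMB substrate, read as absorbance at 450 nm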
T2 construct: Bought protein; also called human GPC3 protein; not shown: His tag

human GPC3-His protein [2] = target: T2, human GPC3-His protein; experiment: ELISA, coated human GPC3, antibody 0.1 nM;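 further: antigen coated on 96-well plates at 1 µg/mL, antibody bound 2 h at 37 °C, detected with HRP-labeled secondary antibody and TMB substrate, acid-stopped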
Description: (§1) The specific method is described as follows: The antigen protein was diluted with PBS to a final concentration of 1 μg/mL, and the diluent was added to a 96-well ELISA plate at 50 μL/well. The plate was sealed with a plastic film and incubated at 4° C. overnight, washed twice with PBS the next day, and a blocking solution [PBS+2% (w/w) BSA] was added for blocking at room temperature for 2 h. […] After incubation at 37° C. for 2 h, the plate was washed 3 times with PBS. A horseradish peroxidase (HRP)-labeled secondary antibody (purchased from Merck, Cat. No. AP113P) was added for incubation at 37° C. for 1 h, and the plate was washed 5 times with PBS. A TMB substrate was added at 50 μL/well for incubation at room temperature for 10 min, then a stop solution (1.0M HCl) was added at 50 μL/well. An ELISA plate reader (Multimode Plate Reader, EnSight, purchased from Perkin Elmer) was used to read OD_{450 nm} values, with results as shown in Table 4 to Table 6, FIG. 1A, FIG. 1B, and FIG. 1C.

human GPC3-His protein [3] = target: T2, human GPC3-His protein; experiment: ELISA, coated human GPC3, antibody 1 nM;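 further: antigen coated at 1 µg/mL on 96-well plates, antibody bound for 2 h at 37 °C, detected with HRP-labeled secondary antibody and TMB, absorbance read at 450 nm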
Description: as §1

human GPC3-His protein [4] = target: T2, human GPC3-His protein; experiment: ELISA, coated human GPC3, antibody 100 nM;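 further: antibodies bound to antigen-coated 96-well plates (1 µg/mL), 2 h at 37 °C, detected with HRP-labelled secondary antibody and TMB substrate, absorbance read at 450 nm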
human GPC3-His protein [5] = target: T2, human GPC3-His protein; experiment: ELISA, coated human GPC3, antibody 0.0001 nM
human GPC3-His protein [6] = target: T2, human GPC3-His protein; experiment: ELISA, coated human GPC3, antibody 10 nM;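 further: plate coated with antigen at 1 µg/mL, antibodies bound 2 h at 37 °C, detected via HRP-conjugated secondary antibody and TMB substrate, absorbance read after acid stop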
Description: as §1

[7] = target: T3, GPC3 endogenously expressed on HepG2 cells (UniProt P51654 25-554); experiment: FACS on HepG2 cells;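 further: flow cytometric binding of chimeric antibodies to cells, read as mean fluorescence intensity, EC50 obtained by curve fitting of the MFI data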
T3 construct: whole, on cells
Description: (§2) The desired cells were expanded to a logarithmic growth phase in a T-75 cell culture flask, the medium was removed by pipetting, and the cells were washed twice with a PBS buffer, and digested with trypsin. Then a complete medium was added to stop the digestion, and the cells were blown into a single cell suspension. After counting, the cells were centrifuged, and the cell pellet was resuspended with an FACS buffer (PBS+2% fetal bovine serum) to 2×10⁶ cells/mL. The cell resuspension solution was added to a 96-well FACS reaction plate at 50 μl/well, and a chimeric antibody sample to be tested was added at 50 μl/well for incubation at 4° C. for 1 h. […] After the plate was centrifuged and washed 3 times with a PBS buffer, 100 μl of the resulting solution was assayed and analyzed by FACS (FACS Canto™, purchased from BD Biosciences). Data analysis was performed by software (FlowJo) to obtain the mean fluorescence intensity (MFI) of the cells. Then, analysis was performed by software (GraphPad Prism8), data were fitted, and EC₅₀ values were calculated.

human GPC3-His protein [8] = target: T2, human GPC3-His protein; experiment: ELISA, coated human GPC3, antibody 0.001 nM
[9] = target: T4, human GPC3 on CHO-K1-human GPC3 cells (clone CHOK1-hGPC3.2B5) (human, UniProt P51654 25-554); experiment: FACS on CHOK1-hGPC3.2B5 cells;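 further: flow cytometry binding of chimeric antibodies to the cells, read out as mean fluorescence intensity, with the half-maximal concentration derived by curve fitting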
T4 construct: whole, on cells; Stably transfected CHO-K1 clone 2B5
Description: as §2

polypeptide GC3pep [10] = target: T1, polypeptide GC3pep; experiment: ELISA, GC3pep coated, antibody 0.0001 nM
polypeptide GC3pep [11] = target: T1, polypeptide GC3pep; experiment: ELISA, GC3pep coated, antibody 10 nM;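 further: antibody bound to the coated peptide for 2 h at 37 °C, detected through an HRP-conjugated secondary antibody with TMB colour development stopped by acid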
polypeptide GC3pep [12] = target: T1, polypeptide GC3pep; experiment: ELISA, GC3pep coated, antibody 0.1 nM;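 further: antibody allowed to bind the coated plate 2 h at 37 °C, then detected via HRP-conjugated secondary antibody and TMB development for 10 min, stopped with HCl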
polypeptide GC3pep [13] = target: T1, polypeptide GC3pep; experiment: ELISA, GC3pep coated, antibody 0.01 nM;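 further: bound antibody detected with an HRP-conjugated secondary antibody and TMB substrate, color reaction stopped with HCl before reading absorbance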
Description: (§3) The plate was sealed with a plastic film and incubated at 4° C. overnight, washed twice with PBS the next day, and a blocking solution [PBS+2% (w/w) BSA] was added for blocking at room temperature for 2 h. […] After incubation at 37° C. for 2 h, the plate was washed 3 times with PBS. A horseradish peroxidase (HRP)-labeled secondary antibody (purchased from Merck, Cat. No. AP113P) was added for incubation at 37° C. for 1 h, and the plate was washed 5 times with PBS. A TMB substrate was added at 50 μL/well for incubation at room temperature for 10 min, then a stop solution (1.0M HCl) was added at 50 μL/well.

polypeptide GC3pep [14] = target: T1, polypeptide GC3pep; experiment: ELISA, GC3pep coated, antibody 100 nM;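 further: detection with an HRP-conjugated secondary antibody and TMB substrate, color reaction stopped with HCl before absorbance reading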
polypeptide GC3pep [15] = target: T1, polypeptide GC3pep; experiment: ELISA, GC3pep coated, antibody 1 nM;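 further: bound antibody detected with an HRP-conjugated secondary antibody and TMB substrate, reaction stopped with HCl, after 2 h binding at 37 °C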
Description: as §3

polypeptide GC3pep [16] = target: T1, polypeptide GC3pep; experiment: ELISA, GC3pep coated, antibody 0.001 nM

| Binder | OD450 nm (human GPC3-His protein [1]) | OD450 nm (human GPC3-His protein [2]) | OD450 nm (human GPC3-His protein [3]) | OD450 nm (human GPC3-His protein [4]) | OD450 nm (human GPC3-His protein [5]) | OD450 nm (human GPC3-His protein [6]) | EC50 [7] | Max MFI [7] | OD450 nm (human GPC3-His protein [8]) | EC50 [9] | Max MFI [9] | OD450 nm (polypeptide GC3pep [10]) | OD450 nm (polypeptide GC3pep [11]) | OD450 nm (polypeptide GC3pep [12]) | OD450 nm (polypeptide GC3pep [13]) | OD450 nm (polypeptide GC3pep [14]) | OD450 nm (polypeptide GC3pep [15]) | OD450 nm (polypeptide GC3pep [16]) |
| --- | --- | --- | --- | --- | --- | --- | --- | --- | --- | --- | --- | --- | --- | --- | --- | --- | --- | --- |
| B1 | 0.18 OD450 | 0.64 OD450 | 1.25 OD450 | 1 OD450 | 0.09 OD450 | 1.43 OD450 | 0.85 nM | 1600 MFI | 0.11 OD450 | 1.21 nM | 2810 MFI | – | – | – | – | – | – | – |
| B2 | – | – | – | – | – | – | – | – | – | – | – | 0.04 OD450 nm | 0.05 OD450 nm | 0.05 OD450 nm | 0.05 OD450 nm | 0.09 OD450 nm | 0.05 OD450 nm | 0.05 OD450 nm |
| B3 | – | – | – | – | – | – | – | – | – | – | – | 0.05 OD450 nm | 0.06 OD450 nm | 0.06 OD450 nm | 0.05 OD450 nm | 0.1 OD450 nm | 0.05 OD450 nm | 0.05 OD450 nm |
| B4 | 0.15 OD450 | 0.46 OD450 | 1.37 OD450 | 0.52 OD450 | 0.1 OD450 | 1.14 OD450 | 2.31 nM | 1710 MFI | 0.1 OD450 | 3.25 nM | 2170 MFI | – | – | – | – | – | – | – |
| B5 | – | – | – | – | – | – | – | – | – | – | – | 0.04 OD450 nm | 0.07 OD450 nm | 0.05 OD450 nm | 0.05 OD450 nm | 0.06 OD450 nm | 0.04 OD450 nm | 0.05 OD450 nm |
| B6 | 0.26 OD450 | 0.83 OD450 | 1.41 OD450 | 1.02 OD450 | 0.16 OD450 | 1.18 OD450 | 0.92 nM | 1390 MFI | 0.15 OD450 | 0.89 nM | 2370 MFI | – | – | – | – | – | – | – |
| B7 | – | – | – | – | – | – | – | – | – | – | – | 0.05 OD450 nm | 0.05 OD450 nm | 0.05 OD450 nm | 0.05 OD450 nm | 0.06 OD450 nm | 0.05 OD450 nm | 0.05 OD450 nm |
| B8 | – | – | – | – | – | – | – | – | – | – | – | 0.05 OD450 nm | 0.05 OD450 nm | 0.05 OD450 nm | 0.05 OD450 nm | 0.06 OD450 nm | 0.05 OD450 nm | 0.05 OD450 nm |
| B9 | – | – | – | – | – | – | – | – | – | – | – | 0.04 OD450 nm | 0.06 OD450 nm | 0.05 OD450 nm | 0.05 OD450 nm | 0.07 OD450 nm | 0.05 OD450 nm | 0.05 OD450 nm |
| B10 | – | – | – | – | – | – | – | – | – | – | – | 0.05 OD450 nm | 0.05 OD450 nm | 0.05 OD450 nm | 0.05 OD450 nm | 0.06 OD450 nm | 0.05 OD450 nm | 0.05 OD450 nm |
| B11 | – | – | – | – | – | – | – | – | – | – | – | 0.05 OD450 nm | 0.05 OD450 nm | 0.05 OD450 nm | 0.05 OD450 nm | 0.06 OD450 nm | 0.05 OD450 nm | 0.05 OD450 nm |
